The supplement of paper PMC10899765
± gives the standard deviation of the averaged measurements.

How the values were obtained:
Conditions in all cases: 20 nM; 72 h
[1] = test system: MCF10A; experiment: one-nucleolus phenotype percent effect (relative to siNT 0% and siNOL11 100%); higher = more cells with one nucleolus (ribosome biogenesis inhibition)
Experimental: (§1)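 After 72 h, cells were fixed and stained with Hoechst and anti-fibrillarin, and nucleoli per nucleus were counted with CellProfiler. Values are plate-adjusted percent effect for the one-nucleolus and 5+ nucleoli phenotypes, normalised to siNT (0%) and to the positive controls siNOL11 or siKIF11 (100%), as the mean of biological triplicates. Percent viability is the nuclei count relative to siNT.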

[2] = test system: MCF10A; experiment: 5+ nucleoli phenotype percent effect (relative to siNT 0% and siKIF11 100%); higher = more cells with five or more nucleoli
Experimental: as §1

[3] = test system: MCF10A; experiment: percent viability (nuclei count relative to siNT); higher = more viable cells
Experimental: as §1

Row | Sequence | one-nucleolus phenotype percent effect [1] | 5+ nucleoli phenotype percent effect [2] | percent viability [3]
1 | AUGCAGGCCUGUGUACAGCACU [hsa-miR-6811-5p] | 57% | -31.3% | 19.1%
2 | AUGCCUCCCCCGGCCCCGCAG [hsa-miR-6836-3p] | -8.85% | -0.9% | 41.9%
3 | AUGCGAGGAUGCUGACAGUG [hsa-miR-4737] | 35.7% | -33.6% | 28.3%
4 | AUGCGGACCUGGGUUAGCGGAGU [hsa-miR-4754] | 47.4% | -38.9% | 38.8%
5 | AUGCUACUCGGAAAUCCCACUGA [hsa-miR-5089-3p] | 12.4% | -30.6% | 47.3%
6 | AUGCUGACAUAUUUACUAGAGG [hsa-miR-628-5p] | -9.78% | 32.8% | 107%
7 | AUGGAAUGUAUAUACGGAAUA [hsa-miR-3673] | 63.4% | -48.6% | 35.7%
8 | AUGGAGAAGGCUUCUGA [hsa-miR-4531] | 56.1% | -33.8% | 32.2%
9 | AUGGAGAUAGAUAUAGAAAU [hsa-miR-620] | 24% | -31.1% | 62.9%
10 | AUGGAGCUGGAACCAGAUCAGGC [hsa-miR-6874-5p] | 41.9% | -35.8% | 30.7%
11 | AUGGAUAAGGCUUUGGCUU [hsa-miR-1261] | 24.4% | -12.9% | 50.3%
12 | AUGGCAUCGUCCCCUGGUGGCU [hsa-miR-4642] | 16.6% | -4.74% | 31.3%
13 | AUGGCCAAAACUGCAGUUAUUUU [hsa-miR-548s] | 8.89% | 14.5% | 37.4%
14 | AUGGCCAGAGCUCACACAGAGG [hsa-miR-4435] | -11.4% | 40.9% | 68%
15 | AUGGGGACAGGGAUCAGCAUGGC [hsa-miR-6810-5p] | 45.5% | -23.9% | 25.9%
16 | AUGGGGUGAGAUGGGGAGGAGCAGC [hsa-miR-6812-5p] | 12.2% | -19.9% | 23.7%
17 | AUGGGUGAAUUUGUAGAAGGAU [hsa-miR-1262] | 17.3% | -20.4% | 27.2%
18 | AUGGGUGAUGGGUGUGGUGU [hsa-miR-4701-3p] | 47.1% | -25% | 13.3%
19 | AUGGUACCCUGGCAUACUGAGU [hsa-miR-1263] | 49.6% | -22.2% | 24.8%
20 | AUGGUCACCUCCGGGACU [hsa-miR-5587-5p] | -15.8% | 41.6% | 60.6%
21 | AUGGUCUCCUGUUCUCUGCAG [hsa-miR-6843-3p] | 10.8% | 7.69% | 31.7%
22 | AUGGUUCCGUCAAGCACCAUGG [hsa-miR-218-1-3p] | 11.8% | 4.75% | 51%
23 | AUGUAGGGCUAAAAGCCAUGGG [hsa-miR-135b-3p] | 6.54% | 10.5% | 14.3%
24 | AUGUAUAAAUGUAUACACAC [hsa-miR-568] | -26.3% | 26.1% | 178%

Row | Sequence | one-nucleolus phenotype percent effect [1] | 5+ nucleoli phenotype percent effect [2] | percent viability [3]
25 | AUGUAUGUGUGCAUGUGCAUG [hsa-miR-297] | -26.3% | 34.4% | 116%
26 | AUGUCCAUAUUAUGGGUUAGU [hsa-miR-3912-5p] | -28.3% | 83.1% | 83.8%
27 | AUGUCCCACCCCCACUCCUGU [hsa-miR-4433b-5p] | 55.5% | -37.3% | 28.3%
28 | AUGUGAUUGACGGCUGACUCCA [hsa-miR-8070] | 26.5% | -27.8% | 23%
29 | AUGUGCCUGAGGGAGUAAGACA [hsa-miR-550b-2-5p] | 9.16% | -13.6% | 49.7%
30 | AUGUGGGCUCAGGCUCA [hsa-miR-4296] | 44.2% | -35.4% | 26.9%
31 | AUUAAGGACAUUUGUGAUUGAU [hsa-miR-4477b] | -4.92% | 7% | 37.8%
32 | AUUAGGUAGUGGCAGUGGAAC [hsa-miR-6509-5p] | -17.9% | 6.73% | 55.7%
33 | AUUCCUAGAAAUUGUUCAUA [hsa-miR-384] | -8.73% | 23.8% | 107%
34 | AUUCUAAGUGCCUUGGCC [hsa-miR-4263] | -0.791% | -1.39% | 37.3%
35 | AUUCUAAUUUCUCCACGUCUUU [hsa-miR-576-5p] | 1.07% | 28.2% | 100%
36 | AUUCUCUCUGGAUCCCAUGGAU [hsa-miR-4768-5p] | -12.2% | -2.49% | 22.6%
37 | AUUCUGCAUUUUUAGCAAGUUC [hsa-miR-544a] | 5.39% | -31.2% | 26.6%
38 | AUUCUUCCUGCCCUGGCUCCAU [hsa-miR-6875-3p] | -4.69% | -0.842% | 29.5%
39 | AUUGAAACCUCUAAGAGUGGA [hsa-miR-510-3p] | -2.4% | 8.91% | 41.7%
40 | AUUGACACCUCUGUGAGUGGA [hsa-miR-514b-3p] | 16.1% | -12.5% | 32.6%
41 | AUUGACACUUCUGUGAGUAGA [hsa-miR-514a-3p] | 13.2% | -5.72% | 56.9%
42 | AUUGCCUAACAUGUGCCAGAA [hsa-miR-4774-3p] | 13.7% | -31.6% | 26.6%
43 | AUUGCCUCUGUUCUAACACAAG [hsa-miR-3152-5p] | -11.4% | 38.3% | 129%
44 | AUUGGACUGCUGAUGGCCCGU [hsa-miR-4529-3p] | 19.5% | -12.1% | 48.3%
45 | AUUGGGAACAUUUUGCAUGUAU [hsa-miR-450a-1-3p] | -29.7% | 24.1% | 95%
46 | AUUGGGGACAUUUUGCAUUCAU [hsa-miR-450a-3p] | 7.56 ± 4.4% | -17.5 ± 0.61% | 31.6 ± 3.4%
47 | AUUGUAGAACCUAAGAUUGGCC [hsa-miR-3674] | 40.2% | -29.6% | 27.9%
48 | AUUGUCCCUCUCCCUUCCCAG [hsa-miR-4646-3p] | -0.307% | -1.47% | 50.3%
